This assay has as its target HA-tagged p26 (long-distance movement protein p26 of Pea enation mosaic virus 2) (Pea enation mosaic virus 2). Briefly: SDS-PAGE and Western blot; lysates of agroinfiltrated N. benthamiana leaves (10x PBS, 2% beta-mercaptoethanol), 10% SDS-PAGE, blot with anti-HA antibody; co-infiltrated with p14, GFP-3'UTR(PEMV) and U1D.

The substance “HA-tagged p26 (long-distance movement protein p26 of Pea enation mosaic virus 2) (natural protein)” had a stoichiometry N of 2.
